This sample holds only a part of the variants without activity.
B1: TPR 5TU (parent)
chain: GGAUCUUCUCGAUCUAACAAAAAAGACAAAUCUGCCACAAAGCUUGAGAGCAUCUUCGGAUGCAGAGGCGGCAGCCUUCGGUGGCGCGAUAGCGCCAACGUUCUCAACUAUGACACGCAAAACGCGUGCUCCGUUGAAUGGAGUUUAUCAUG

Variants of: B1
Experiment: polymerase ribozyme fitness, log enrichment relative to wild type (log ratio); higher = more active; in vitro selection for triplet polymerase activity
Method in brief: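 Fitness is a logarithmic measure of how a genotype enriched relative to the wild type, with replicate averages weighted by inverse variance. The logarithm uses base 2, and enrichment came from Illumina sequencing of input and output libraries. Those libraries were PCR-built, transcribed mutants of each subunit of a heterodimeric triplet polymerase ribozyme, passed through one triplicate in vitro selection round that included frozen incubation at −7 °C, gel excision of extended constructs and streptavidin-bead capture. Genotypes were kept only if they had ≥10 input reads and ≥1 read per output.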

| Variant | polymerase ribozyme fitness (log ratio) |
| --- | --- |
| A52C U53A G88C C95U U145C | ≤ -4.2 |
| A52G C54A | -0.998 |
| C51U A52G | -1.18 |
| A52C A64G C85U U145G | ≤ -4.2 |
| A52C C54A A89G G117A | -3.55 |
| A52C C96U U130A U144G A147C | -3.6 |
| A52G U61G A73G | -2.84 |
| A52U C93A U139G | ≤ -4.2 |
| C51U C95G A110U G141U | ≤ -4.2 |
| C51U C108U | -3.72 |
| A52G C57A G92U | -0.753 |
| A52G U56C C93A | -2.44 |
| A52G U56A | -0.876 |
| A52U C54A G70A A89G G92C A119C G126A G141A | ≤ -4.2 |
| C51U C85G | -2.53 |
| C51U C85A | -2.63 |
| A52U A122G | -3.43 |
| A52G C93G G141C | -3.74 |
| A52U C96A | -2.92 |
| C51U C85U G140C | ≤ -4.2 |
| A52U A73C G83C G84A G92U C123G | ≤ -4.2 |
| A52G G141A | -1.24 |
| C51U G59C C72A | ≤ -4.2 |
| A52C U56A G67C G84A U139G U144A | ≤ -4.2 |

| Variant | polymerase ribozyme fitness (log ratio) |
| --- | --- |
| A52G U82A | -0.467 |
| C51U C96U C105U | 0.0676 |
| A52G A73U G84A | -2.15 |
| C51U C93G U130C U145A | -3.53 |
| A52G U55A G92U | -0.803 |
| A52C G84U | -2.64 |
| A52C G84A | -1.32 |
| A52G G67U A142G | -3.52 |
| A52C U55A C85G C116A | -3.78 |
| A52G G94C | -1.32 |
| A52C A73G C85A | -3.88 |
| C51U C54G C85U U101G A137G U144G | ≤ -4.2 |
| C51U C96A C105A C118U | -2.94 |
| A52C G88A U146G A150C | ≤ -4.2 |
| A52C U101G | -1.56 |
| A52C G83C C87U A122G | ≤ -4.2 |
| C51U A73G G92U | -0.595 |
| C51U C69A G84U A91G G133A U144A A147U | ≤ -4.2 |
| A52C C54U G68A C93U C103A A106G A110U | ≤ -4.2 |
| C51U C87U | -1.13 |
| C51U C87A | ≤ -4.2 |
| A52C G59A G68A C79U G92U U104G | ≤ -4.2 |
| A52U C57A U135C | -3.88 |
| A52C U55G | -3.84 |

| Variant | polymerase ribozyme fitness (log ratio) |
| --- | --- |
| C51U U53G A119U G143C | ≤ -4.2 |
| A52G U101G | -0.16 |
| A52C G68A G94C C99U C108G A120C G143C | ≤ -4.2 |
| A52C G94A | -0.384 |
| A52C U55A A66C C79G G133U A137G | ≤ -4.2 |
| A52C C85U A147G | -3.76 |
| C51U C95G C105U U145A | -1.72 |
| A52G G86A | -0.796 |
| A52C C96G | -1.36 |
| A52C C96A | -1.55 |
| A52C G58A A147U | -0.233 |
| A52C C85U G94C G141C | -3.45 |
| A52G C105A C123A G133U U144G | ≤ -4.2 |
| A52G A107C | -3.09 |
| A52G A107U | -3.56 |
| A52C A97U | -1.59 |
| A52C G84U C96U U144A | ≤ -4.2 |
| A52G U135G U139C A147C | ≤ -4.2 |
| C51U A89G G141U | -0.598 |
| A52C G86C | -4.07 |
| A52C G86A | -1.2 |
| C51U G62A U139G | -0.262 |
| C51U G94C | -0.484 |
| C51U G94A | -1.11 |

| Variant | polymerase ribozyme fitness (log ratio) |
| --- | --- |
| A52C A91U U148A | ≤ -4.2 |
| A52G U109G A122U | -1.46 |
| A52C U55A G62C G84A C105U C114U G141A C149A | ≤ -4.2 |
| A52U C57U G83C | -3.29 |
| A52C C57U G81C | -1.59 |
| A52G A66C C85A A110C | ≤ -4.2 |
| A52G A64U G81A G86C G92A A122C G143C | ≤ -4.2 |
| A52G C93U C96U G136C A138G U146A | ≤ -4.2 |
| C51U U56A C87A C95U C118A U139C | ≤ -4.2 |
| C51U U61A G86C | -4.06 |
| A52G G71U | -2.58 |
| A52C C72U C96A C123U | -2.72 |
| A52G U56G C85A C131U A137G | -3.95 |
| C51G U56A G117U | -2.86 |
| C51U U78G C96U | ≤ -4.2 |
| C51U C96U | -0.419 |
| A52C G58A C93A C118U | -3.55 |
| A52C U90G | ≤ -4.2 |
| A52C G70A U90G A106U | ≤ -4.2 |
| A52C C57U G133U | ≤ -4.2 |
| C51G U56G C93U | -3.95 |
| C51U C96U G124A | -0.0401 |
| C51U A52G A60U A66G C103U A107U C114U C123G G143A | ≤ -4.2 |
| C51U U56A G71C G84A G140A A142U | ≤ -4.2 |

| Variant | polymerase ribozyme fitness (log ratio) |
| --- | --- |
| A52U A73G U102C | ≤ -4.2 |
| A52G C75A G84U A110U | ≤ -4.2 |
| A52U A89G | -3.14 |
| C51U C95U U104G U144A | -2.33 |
| C51U G141C | -0.423 |
| A52C G58U G59A C85A | -2.15 |
| C51U C75U C96U G143C | -4.11 |
| A52G G84A C116G | -2.02 |
| A52C C75U A97U U109G C114A | -3.53 |
| A52G C54G G67C G81A C95G | -3.86 |
| A52C C54A | ≤ -4.2 |
| C51U A89G C99U A150G | -3.67 |
| A52C U56C C57A G67A C85U A97U U146G U151G | ≤ -4.2 |
| A52G A150G | -2.55 |
| A52C G81A G86U | -2.1 |
| A52G C57A G94U G117U A121C C131G | ≤ -4.2 |
| C51U C87G C93G C105G A106C A113G | ≤ -4.2 |
| A52C U111C A121C C123A U145A A150G | -3.02 |
| C51U G67A C72A C123U C132A U134C | ≤ -4.2 |
| A52G C96U | -1.46 |
| A52G A60U C85A G94U C96G | -3.93 |
| A52G U53A A89C C93U | -2.02 |
| A52C G80C | ≤ -4.2 |
| A52G U53C G58A A142C | -3.35 |

| Variant | polymerase ribozyme fitness (log ratio) |
| --- | --- |
| A52G U104A A122G U139G | -1.23 |
| C51U C75U G88A C93U G94A G136C | ≤ -4.2 |
| A52G C103U | -1.06 |
| A52G C93U G94C A97C | -3.73 |
| A52C C87A G92C G141A | ≤ -4.2 |
| A52C C57U C85U U135A | -1.62 |
| A52C C99U | -1.81 |
| A52C C99G | -4.11 |
| A52C A73G | -1.89 |
| A52C A73U | -3.14 |
| A52C G70C C85U G94C C129A | ≤ -4.2 |
| C51U G88C | -4.09 |
| C51U A52U G74C A113C C131A | ≤ -4.2 |
| A52U A91U A115G C131U | ≤ -4.2 |
| A52C A91U C93A G133C | ≤ -4.2 |
| C51U U56G A73C C79G C93G A137C | ≤ -4.2 |
| A52C C85U U102C | -2.57 |
| A52G G70C U78G C93G G141C | ≤ -4.2 |
| A52G G81A | -0.481 |
| A52G C108U | -2.1 |
| A52U C54G | -2.21 |
| A52U C54U | -1.2 |
| C51U C69U C96G | -3.06 |
| A52C G92U C103G A106C | ≤ -4.2 |

| Variant | polymerase ribozyme fitness (log ratio) |
| --- | --- |
| C51U G81C C85U G117C U134A A137G | -3.98 |
| A52G C57A G83U A91G C95A | -4.15 |
| A52G C93U C116U | -1.48 |
| A52G U104G | -1.26 |
| C51U A73U C118G A119C | -1.81 |
| A52C G58C A91U A121U | ≤ -4.2 |
| A52G G74C C96U U144G | ≤ -4.2 |
| C51U A52G C87U A137C | ≤ -4.2 |
| A52G G100U A106U | ≤ -4.2 |
| C51U A64C C79A C85U A142G | ≤ -4.2 |
| A52G U56G G83A | -2.85 |
| C51U C99U | -0.392 |
| C51U U55A C76A U90C C96G G100A U101G | ≤ -4.2 |
| A52U C54U G92A A98G A120G U139C U144C U151A | ≤ -4.2 |
| A52C G94C A106G | -1.86 |
| A52G A73G C85U | -0.163 |
| A52G A106G | -0.771 |
| A52U A91U U139G U144A | ≤ -4.2 |
| A52U C54U A97U | -2.56 |
| A52C A110G A150G | -3.86 |
| C51U C93A A150U | -0.998 |
| A52G C85A G140U | ≤ -4.2 |
| A52G U78C | -0.764 |

Reference: the RNAGym collection of RNA variant scans (doi:10.1073/pnas.2313332121)
